± gives the standard deviation of the averaged measurements.
B1: library; numbered along this chain (parent)
chain: MNIQIGELAKRTACPVVTIRFYEQEGLLPPPGRSRGNFRLYGEEHVERLQFIRHCRSLDMPLSDVRTLLSYRKRPDQDCGEVNMLLDEHIRQVESRIGALLELKHHLVELREACSGARPAQSCGILQGLSDCVCDTRGTTAHPSD

Experiments:
[1] = variants of: B1; assay: sfGFP reporter fluorescence (15 h) (µM FITC); higher = higher leak; conditions: library round: Round 0; ligand: none
How it was run: (§1)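 Linear PbrR templates were made by PCR, normalized to 5 nM with an Echo, and expressed in BL21 Star (DE3) PANOx-SP extract with the pPbrR-sfGFP reporter plasmid and 30 μg/mL GamS. Echo-assembled 1 μL reactions held 1 µM lead chloride, 30 µM zinc acetate or no metal and were incubated 15 hr at 30 °C. Endpoint sfGFP fluorescence was read on a Synergy Neo2 and expressed as µM FITC using standard curves. Up to three biological replicates were run.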

[2] = variants of: B1; assay: sfGFP reporter fluorescence (15 h) (µM FITC); higher = stronger transcriptional activation; conditions: library round: Round 0
How it was run: as §1

Variant	sfGFP reporter fluorescence [1]	sfGFP reporter fluorescence ([2]; ligand: 1 µM Pb)	sfGFP reporter fluorescence ([2]; ligand: 30 µM Zn)
MNIQIGELAKRTACPVVTIRFYEQEGLLPPPGRSRGNFRLYGFEHVERLQFIRHCRSLDMPLSDVRTLLSYRKRPDQDCGEVNMLLDEHIRQVESRIGALLELKHHLVELREACSGARPAQSCGILQGLSDCVCDTRGTTAHPSD [E43F]	0.05846 ± 0.00026	0.0828 ± 0.015	0.99 ± 0.18
MNIQIGELAKRTACPVVTIRFYEQEGLLPPPGRSRGNFRLYGGEHVERLQFIRHCRSLDMPLSDVRTLLSYRKRPDQDCGEVNMLLDEHIRQVESRIGALLELKHHLVELREACSGARPAQSCGILQGLSDCVCDTRGTTAHPSD [E43G]	0.0583 ± 0.0021	0.0883 ± 0.001	0.924 ± 0.066
MNIQIGELAKRTACPVVTIRFYEQEGLLPPPGRSRGNFRLYGHEHVERLQFIRHCRSLDMPLSDVRTLLSYRKRPDQDCGEVNMLLDEHIRQVESRIGALLELKHHLVELREACSGARPAQSCGILQGLSDCVCDTRGTTAHPSD [E43H]	0.0669 ± 0.00078	0.0891 ± 0.013	0.629 ± 0.0098
MNIQIGELAKRTACPVVTIRFYEQEGLLPPPGRSRGNFRLYGIEHVERLQFIRHCRSLDMPLSDVRTLLSYRKRPDQDCGEVNMLLDEHIRQVESRIGALLELKHHLVELREACSGARPAQSCGILQGLSDCVCDTRGTTAHPSD [E43I]	0.05186 ± 0.00026	0.0806 ± 0.0093	1.11 ± 0.078
MNIQIGELAKRTACPVVTIRFYEQEGLLPPPGRSRGNFRLYGKEHVERLQFIRHCRSLDMPLSDVRTLLSYRKRPDQDCGEVNMLLDEHIRQVESRIGALLELKHHLVELREACSGARPAQSCGILQGLSDCVCDTRGTTAHPSD [E43K]	0.0594	0.109 ± 0.02	2.36 ± 0.049
MNIQIGELAKRTACPVVTIRFYEQEGLLPPPGRSRGNFRLYGLEHVERLQFIRHCRSLDMPLSDVRTLLSYRKRPDQDCGEVNMLLDEHIRQVESRIGALLELKHHLVELREACSGARPAQSCGILQGLSDCVCDTRGTTAHPSD [E43L]	0.05113 ± 0.00026	0.0713 ± 0.007	1.01 ± 0.038
MNIQIGELAKRTACPVVTIRFYEQEGLLPPPGRSRGNFRLYGMEHVERLQFIRHCRSLDMPLSDVRTLLSYRKRPDQDCGEVNMLLDEHIRQVESRIGALLELKHHLVELREACSGARPAQSCGILQGLSDCVCDTRGTTAHPSD [E43M]	0.0597 ± 0.0047	0.099 ± 0.0047	1.33 ± 0.083

From the supplement of paper PMC12783771
